Experimental data published in patent US10329331B2, “Polypeptides” (priority 2010, dated 2019).

What was measured:
[1] = system: CD3+ CD4+ T cells in peripheral blood mononuclear cells (PBMC)
physchem = type: physicochemical
Procedure: Amicon Ultra centrifugal filter units, cut off of 3 kDa, (Millipore, Cat. No. UFC800324) were prerinsed with 2 ml NaPi buffer by centrifugation at 4000 g for 20 min in a swinging bucket rotor centrifuge (Multifuge, Heraeus). […] A 25 μl sample was removed (UF sample 1) for further analysis and the rest of the sample was transferred to a second centrifugal filter unit. The centrifugation and sample removal were repeated three times with spinning times of 8, 9 and 20 min respectively (UF sample 2, 3 and 4 respectively). Absorbance readings were performed using a NANODROP ND-1000 Spectrophotometer and by diluting UF samples 1-4 in NaPi buffer 2, 4, 6 and 12 times respectively. The concentrations were calculated using the extinction coefficient 1 Abs 280=1.955 mg/ml. Gel filtration was performed on a 1100 HPLC system (Agilent Technologies) using a Superdex75 10/300 GL column (GE Healthcare) which had been equilibrated in NaPi buffer. 10 μl of each UF sample were applied to the column; NaPi buffer was used as running buffer and the flow rate was 0.5 ml/min. A chromatogram of the molecular weight standard ovalbumin (GE Healthcare), injected at a concentration of 5 mg/ml was collected as well. Concentrations were determined by integrating the area under the curve.

[2] = Small animal PET whole body distribution of 68Ga-labeled polypeptide; type: in vivo; settings: rat, after intravenous injection, PET over […]
Procedure: The labeling mixture was incubated at 90° C. for 15 min before cooling, and the labeled protein was isolated by size exclusion purification on a NAP-5 column eluted with physiologically buffered saline.
A rat (277 g) was anesthetized with isoflurane (initially 5%, then 2% blended with 7:3 air/O2), controlled by an E-Z vaporizer using Microflex non-rebreather masks from Euthanex Corporation, and was kept on a heating pad (37° C.) while lying within a microPET Focus120 system (Siemens, CTI Concorde Microsystems). ^68Ga-PEP08296, 33 MBq, was dispensed in a syringe, diluted with saline to 0.5 ml and injected via the tail vein. Data were acquired from the whole body by moving the bed in a constant bed motion protocol for 1.5 h. Data were processed with MicroPET Manager and corrected for randoms, dead time and decay. Images were reconstructed by standard 2D filtered back projection using a ramp filter and evaluated using Inveon Research Workplace (Siemens Medical Solutions) software.

[3] = system: IgG molecules present in normal human sera; experiment: Serum response analysis: ELISA of human serum IgG binding to albumin binding polypeptides; settings: 126 positive sera diluted 50 times; polypeptide 2 μg/ml on albumin coated plates
Procedure: Each serum sample was tested as a singlet.

CC[C@H](C)[C@H](NC(=O)[C@H](C)NC(=O)[C@H](CC(=O)O)NC(=O)[C@H](CCCCN)NC(=O)[C@H](CC(C)C)NC(=O)[C@H](C)NC(=O)[C@H](CCC(=O)O)NC(=O)[C@@H](NC(=O)CNC(=O)[C@H](CCC(=O)O)NC(=O)[C@@H](NC(=O)[C@@H](NC(=O)[C@H](CCCCN)NC(=O)[C@H](C)NC(=O)[C@H](CCCCN)NC(=O)[C@H](CC(=O)O)NC(=O)[C@@H](NC(=O)[C@H](CC(C)C)NC(=O)[C@H](CCCNC(=N)N)NC(=O)[C@H](CCCCN)NC(=O)[C@H](Cc1ccc(O)cc1)NC(=O)[C@H](Cc1ccccc1)NC(=O)[C@H](CC(=O)O)NC(=O)[C@H](CO)NC(=O)[C@@H](NC(=O)CNC(=O)[C@H](Cc1ccc(O)cc1)NC(=O)[C@H](CSC1CC(=O)N(CCNC(=O)CN2CCN(CC(=O)O)CCN(CC(=O)O)CCN(CC(=O)O)CC2)C1=O)NC(=O)[C@H](CC(=O)O)NC(=O)[C@H](CC(C)C)NC(=O)[C@H](CCC(=O)O)NC(=O)[C@H](C)NC(=O)[C@H](CC(N)=O)NC(=O)[C@H](C)NC(=O)[C@H](C)NC(=O)[C@H](CCC(=O)O)NC(=O)[C@H](CCCCN)NC(=O)[C@H](C)NC(=O)[C@H](CO)NC(=O)[C@H](C)NC(=O)[C@H](CC(C)C)NC(=O)CN)C(C)C)[C@@H](C)CC)[C@@H](C)O)C(C)C)C(C)C)C(=O)N[C@@H](CC(C)C)C(=O)N[C@@H](C)C(=O)N[C@@H](C)C(=O)N[C@@H](CC(C)C)C(=O)N1CCC[C@H]1C(=O)O (stereo partly drawn) [PEP07968]
immunogenicity classification [1]: non-immunogenic

CC[C@H](C)[C@H](NC(=O)[C@H](C)NC(=O)[C@H](CC(=O)O)NC(=O)[C@H](CCCCN)NC(=O)[C@H](CC(C)C)NC(=O)[C@H](C)NC(=O)[C@H](CCC(=O)O)NC(=O)[C@@H](NC(=O)CNC(=O)[C@H](CCC(=O)O)NC(=O)[C@@H](NC(=O)[C@@H](NC(=O)[C@H](CCCCN)NC(=O)[C@H](C)NC(=O)[C@H](CCCCN)NC(=O)[C@H](CC(=O)O)NC(=O)[C@@H](NC(=O)[C@H](CC(C)C)NC(=O)[C@H](CCCNC(=N)N)NC(=O)[C@H](CCCCN)NC(=O)[C@H](Cc1ccc(O)cc1)NC(=O)[C@H](Cc1ccccc1)NC(=O)[C@H](CC(=O)O)NC(=O)[C@H](CO)NC(=O)[C@@H](NC(=O)CNC(=O)[C@H](Cc1ccc(O)cc1)NC(=O)[C@H](CO)NC(=O)[C@H](CC(=O)O)NC(=O)[C@H](CC(C)C)NC(=O)[C@H](CCC(=O)O)NC(=O)[C@H](C)NC(=O)[C@H](CC(N)=O)NC(=O)[C@H](C)NC(=O)[C@H](C)NC(=O)[C@H](CCC(=O)O)NC(=O)[C@H](CCCCN)NC(=O)[C@H](C)NC(=O)[C@H](CCC(=O)O)NC(=O)[C@H](C)NC(=O)[C@H](CC(C)C)NC(=O)[C@H](CO)NC(=O)CN)C(C)C)[C@@H](C)CC)[C@@H](C)O)C(C)C)C(C)C)C(=O)N[C@@H](CC(C)C)C(=O)N[C@@H](C)C(=O)N[C@@H](C)C(=O)N[C@@H](CC(C)C)C(=O)N1CCC[C@H]1C(=O)O [PEP07986]
solubility (physchem; pH 7.2): more than 42 mg/ml
solubility (physchem; pH 7.2, aqueous buffer): ≥ 42 mg/mL

CC[C@H](C)[C@H](NC(=O)[C@H](C)NC(=O)[C@H](CC(=O)O)NC(=O)[C@H](CCCCN)NC(=O)[C@H](CC(C)C)NC(=O)[C@H](C)NC(=O)[C@H](CCC(=O)O)NC(=O)[C@@H](NC(=O)CNC(=O)[C@H](CCC(=O)O)NC(=O)[C@@H](NC(=O)[C@@H](NC(=O)[C@H](CCCCN)NC(=O)[C@H](C)NC(=O)[C@H](CCCCN)NC(=O)[C@H](CC(=O)O)NC(=O)[C@@H](NC(=O)[C@H](CC(C)C)NC(=O)[C@H](CCCNC(=N)N)NC(=O)[C@H](CCCCN)NC(=O)[C@H](Cc1ccc(O)cc1)NC(=O)[C@H](Cc1ccccc1)NC(=O)[C@H](CC(=O)O)NC(=O)[C@H](CO)NC(=O)[C@@H](NC(=O)CNC(=O)[C@H](Cc1ccc(O)cc1)NC(=O)[C@H](CSC1CC(=O)N(CCNC(=O)CN2CCN(CC(=O)O)CCN(CC(=O)O)CCN(CC(=O)O)CC2)C1=O)NC(=O)[C@H](CC(=O)O)NC(=O)[C@H](CC(C)C)NC(=O)[C@H](CCC(=O)O)NC(=O)[C@H](C)NC(=O)[C@H](CC(N)=O)NC(=O)[C@H](C)NC(=O)[C@H](C)NC(=O)[C@H](CCC(=O)O)NC(=O)[C@H](CCCCN)NC(=O)[C@H](C)NC(=O)[C@H](CCC(=O)O)NC(=O)[C@H](C)NC(=O)[C@H](CC(C)C)NC(=O)[C@H](CO)NC(=O)CN)C(C)C)[C@@H](C)CC)[C@@H](C)O)C(C)C)C(C)C)C(=O)N[C@@H](CC(C)C)C(=O)N[C@@H](C)C(=O)N[C@@H](C)C(=O)N[C@@H](CC(C)C)C(=O)N1CCC[C@H]1C(=O)NCC(=O)O (single isomer, unassigned) [^68Ga-PEP08296, metal not drawn]
plasma clearance [2]: very slow

CC[C@H](C)[C@H](NC(=O)[C@H](C)NC(=O)[C@H](CC(=O)O)NC(=O)[C@H](CCCCN)NC(=O)[C@H](CC(C)C)NC(=O)[C@H](C)NC(=O)[C@H](CCC(=O)O)NC(=O)[C@@H](NC(=O)CNC(=O)[C@H](CCC(=O)O)NC(=O)[C@@H](NC(=O)[C@@H](NC(=O)[C@H](CCCCN)NC(=O)[C@H](C)NC(=O)[C@H](CCCCN)NC(=O)[C@H](CC(=O)O)NC(=O)[C@@H](NC(=O)[C@H](CC(C)C)NC(=O)[C@H](CCCNC(=N)N)NC(=O)[C@H](CCCCN)NC(=O)[C@H](Cc1ccc(O)cc1)NC(=O)[C@H](Cc1ccccc1)NC(=O)[C@H](CC(=O)O)NC(=O)[C@H](CO)NC(=O)[C@@H](NC(=O)CNC(=O)[C@H](Cc1ccc(O)cc1)NC(=O)[C@H](CO)NC(=O)[C@H](CC(=O)O)NC(=O)[C@H](CC(C)C)NC(=O)[C@H](CCC(=O)O)NC(=O)[C@H](C)NC(=O)[C@H](CC(N)=O)NC(=O)[C@H](C)NC(=O)[C@H](C)NC(=O)[C@H](CCC(=O)O)NC(=O)[C@H](CCCCN)NC(=O)[C@H](C)NC(=O)[C@H](CCC(=O)O)NC(=O)[C@H](C)NC(=O)[C@H](CC(C)C)NC(=O)CN)C(C)C)[C@@H](C)CC)[C@@H](C)O)C(C)C)C(C)C)C(=O)N[C@@H](CC(C)C)C(=O)N[C@@H](C)C(=O)N[C@@H](C)C(=O)N[C@@H](CC(C)C)C(=O)N1CCC[C@H]1C(=O)O [PEP07914]
immunogenicity classification [1]: non-immunogenic

CC[C@H](C)[C@H](NC(=O)[C@H](Cc1c[nH]cn1)NC(=O)[C@H](CC(C)C)NC(=O)[C@H](CCCCN)NC(=O)[C@H](CC(C)C)NC(=O)[C@H](C)NC(=O)[C@H](CCC(=O)O)NC(=O)[C@@H](NC(=O)CNC(=O)[C@H](CCC(=O)O)NC(=O)[C@@H](NC(=O)[C@@H](NC(=O)[C@H](CCCCN)NC(=O)[C@H](C)NC(=O)[C@H](CCCCN)NC(=O)[C@H](CC(N)=O)NC(=O)[C@@H](NC(=O)[C@H](CC(C)C)NC(=O)[C@H](CCCNC(=N)N)NC(=O)[C@H](CCCCN)NC(=O)[C@H](Cc1ccc(O)cc1)NC(=O)[C@H](Cc1ccccc1)NC(=O)[C@H](CC(=O)O)NC(=O)[C@H](CO)NC(=O)[C@@H](NC(=O)CNC(=O)[C@H](Cc1ccc(O)cc1)NC(=O)[C@H](CCCCN)NC(=O)[C@H](CC(=O)O)NC(=O)[C@H](CC(C)C)NC(=O)[C@H](CCC(=O)O)NC(=O)[C@H](CCCNC(=N)N)NC(=O)[C@H](CC(N)=O)NC(=O)[C@H](C)NC(=O)[C@H](CC(C)C)NC(=O)[C@@H](NC(=O)[C@H](CCCCN)NC(=O)[C@H](C)NC(=O)[C@H](CCC(=O)O)NC(=O)[C@H](C)NC(=O)[C@H](CC(C)C)NC(=O)[C@H](CO)NC(=O)[C@H](CO)NC(=O)CN)C(C)C)C(C)C)[C@@H](C)CC)[C@@H](C)O)C(C)C)C(C)C)C(=O)N[C@@H](CC(C)C)C(=O)N[C@@H](C)C(=O)N[C@@H](C)C(=O)N[C@@H](CC(C)C)C(=O)N1CCC[C@H]1C(=O)O [PEP06923]
reactivity with IgG in human sera (average OD-value, percentage of sera with IgG binding) [3]: highest average OD-value and the highest percentage of serum with IgG binding
